Source: patent publication US20110263454A1, “Methods of Identifying Functional Characteristics of Promoters, Transcription Modifying Proteins and Transcription Modulating Agents” (Salk Institute for Biological Studies, priority 2008, published 2011)

B1: RXRb: Retinoic X Receptor β (NR2B2), cDNA driver (protein, UniProt P28702 1-533, looked up)
Retinoic acid receptor …: MSWAARPPFLPQRHAAGQCGPVGVRKEMHCGVASRWRRRRPWLDPAAAAAAAVAGGEQQTPEPEPGEAGRDGMGDSGRDSRSPDSSSPNPLPQGVPPPSPPGPPLPPSTAPSLGGSGAPPPPPMPPPPLGSPFPVISSSMGSPGLPPPAPPGFSGPVSSPQINSTVSLPGGGSGPPEDVKPPVLGVRGLHCPPPPGGPGAGKRLCAICGDRSSGKHYGVYSCEGCKGFFKRTIRKDLTYSCRDNKDCTVDKRQRNRCQYCRYQKCLATGMKREAVQEERQRGKDKDGDGEGAGGAPEEMPVDRILEAELAVEQKSDQGVEGPGGTGGSGSSPNDPVTNICQAADKQLFTLVEWAKRIPHFSSLPLDDQVILLRAGWNELLIASFSHRSIDVRDGILLATGLHVHRNSAHSAGVGAIFDRVLTELVSKMRDMRMDKTELGCLRAIILFNPDAKGLSNPSEVEVLREKVYASLETYCKQKYPEQQGRFAKLLLRLPALRSIGLKCLEHLFFFKLIGDTPIDTFLMEMLEAPHQLA
B2: HNF4g: Hepatocyte Nuclear Factor γ (NR2A2), cDNA driver (protein, UniProt Q14541 1-408, looked up)
Hepatocyte nuclear factor …: MNTTDNGVNCLCAICGDRATGKHYGASSCDGCKGFFRRSIRKSHVYSCRFSRQCVVDKDKRNQCRYCRLRKCFRAGMKKEAVQNERDRISTRRSTFDGSNIPSINTLAQAEVRSRQISVSSPGSSTDINVKKIASIGDVCESMKQQLLVLVEWAKYIPAFCELPLDDQVALLRAHAGEHLLLGATKRSMMYKDILLLGNNYVIHRNSCEVEISRVANRVLDELVRPFQEIQIDDNEYACLKAIVFFDPDAKGLSDPVKIKNMRFQVQIGLEDYINDRQYDSRGRFGELLLLLPTLQSITWQMIEQIQFVKLFGMVKIDNLLQEMLLGGASNDGSHLHHPMHPHLSQDPLTGQTILLGPMSTLVHADQISTPETPLPSPPQGSGQEQYKIAANQASVISHQHLSKQKQL
B3: RXRg: Retinoic X Receptor γ (NR2B3), cDNA driver (protein, UniProt P48443 1-463, looked up)
Retinoic acid receptor …: MYGNYSHFMKFPAGYGGSPGHTGSTSMSPSAALSTGKPMDSHPSYTDTPVSAPRTLSAVGTPLNALGSPYRVITSAMGPPSGALAAPPGINLVAPPSSQLNVVNSVSSSEDIKPLPGLPGIGNMNYPSTSPGSLVKHICAICGDRSSGKHYGVYSCEGCKGFFKRTIRKDLIYTCRDNKDCLIDKRQRNRCQYCRYQKCLVMGMKREAVQEERQRSRERAESEAECATSGHEDMPVERILEAELAVEPKTESYGDMNMENSTNDPVTNICHAADKQLFTLVEWAKRIPHFSDLTLEDQVILLRAGWNELLIASFSHRSVSVQDGILLATGLHVHRSSAHSAGVGSIFDRVLTELVSKMKDMQMDKSELGCLRAIVLFNPDAKGLSNPSEVETLREKVYATLEAYTKQKYPEQPGRFAKLLLRLPALRSIGLKCLEHLFFFKLIGDTPIDTFLMEMLETPLQIT
B4: RORb: RAR-related Orphan Receptor β (NR1F2), cDNA driver (protein, UniProt Q92753 1-470, looked up)
Nuclear receptor ROR-beta: MCENQLKTKADATAQIEVIPCKICGDKSSGIHYGVITCEGCKGFFRRSQQNNASYSCPRQRNCLIDRTNRNRCQHCRLQKCLALGMSRDAVKFGRMSKKQRDSLYAEVQKHQQRLQEQRQQQSGEAEALARVYSSSISNGLSNLNNETSGTYANGHVIDLPKSEGYYNVDSGQPSPDQSGLDMTGIKQIKQEPIYDLTSVPNLFTYSSFNNGQLAPGITMTEIDRIAQNIIKSHLETCQYTMEELHQLAWQTHTYEEIKAYQSKSREALWQQCAIQITHAIQYVVEFAKRITGFMELCQNDQILLLKSGCLEVVLVRMCRAFNPLNNTVLFEGKYGGMQMFKALGSDDLVNEAFDFAKNLCSLQLTEEEIALFSSAVLISPDRAWLIEPRKVQKLQEKIYFALQHVIQKNHLDDETLAKLIAKIPTITAVCNLHGEKLQVFKQSHPEIVNTLFPPLYKELFNPDCATGCK
B5: CAR: Constitutive Androstane Receptor (NR1I3), cDNA driver (protein, UniProt Q14994 1-352, looked up)
Nuclear receptor subfamily 1 …: MASREDELRNCVVCGDQATGYHFNALTCEGCKGFFRRTVSKSIGPTCPFAGSCEVSKTQRRHCPACRLQKCLDAGMRKDMILSAEALALRRAKQAQRRAQQTPVQLSKEQEELIRTLLGAHTRHMGTMFEQFVQFRPPAHLFIHHQPLPTLAPVLPLVTHFADINTFMVLQVIKFTKDLPVFRSLPIEDQISLLKGAAVEICHIVLNTTFCLQTQNFLCGPLRYTIEDGARVSPTVGFQVEFLELLFHFHGTLRKLQLQEPEYVLLAAMALFSPDRPGVTQRDEIDQLQEEMALTLQSYIKGQQRRPRDRFLYAKLLGLLAELRSINEAYGYQIQHIQGLSAMMPLLQEICS
B6: TR2: Testicular Orphan Nuclear Receptor 2 (NR2C1), cDNA driver (protein, UniProt P13056 1-603, looked up)
Nuclear receptor subfamily 2 …: MATIEEIAHQIIEQQMGEIVTEQQTGQKIQIVTALDHNTQGKQFILTNHDGSTPSKVILARQDSTPGKVFLTTPDAAGVNQLFFTTPDLSAQHLQLLTDNSPDQGPNKVFDLCVVCGDKASGRHYGAVTCEGCKGFFKRSIRKNLVYSCRGSKDCIINKHHRNRCQYCRLQRCIAFGMKQDSVQCERKPIEVSREKSSNCAASTEKIYIRKDLRSPLTATPTFVTDSESTRSTGLLDSGMFMNIHPSGVKTESAVLMTSDKAESCQGDLSTLANVVTSLANLGKTKDLSQNSNEMSMIESLSNDDTSLCEFQEMQTNGDVSRAFDTLAKALNPGESTACQSSVAGMEGSVHLITGDSSINYTEKEGPLLSDSHVAFRLTMPSPMPEYLNVHYIGESASRLLFLSMHWALSIPSFQALGQENSISLVKAYWNELFTLGLAQCWQVMNVATILATFVNCLHNSLQQDKMSTERRKLLMEHIFKLQEFCNSMVKLCIDGYEYAYLKAIVLFSPDHPSLENMEQIEKFQEKAYVEFQDYITKTYPDDTYRLSRLLLRLPALRLMNATITEELFFKGLIGNIRIDSVIPHILKMEPADYNSQIIGHSI
B7: PXR: Pregnane X Receptor (NR1I2), cDNA driver (protein, UniProt O75469 1-434, looked up)
Nuclear receptor subfamily 1 …: MEVRPKESWNHADFVHCEDTESVPGKPSVNADEEVGGPQICRVCGDKATGYHFNVMTCEGCKGFFRRAMKRNARLRCPFRKGACEITRKTRRQCQACRLRKCLESGMKKEMIMSDEAVEERRALIKRKKSERTGTQPLGVQGLTEEQRMMIRELMDAQMKTFDTTFSHFKNFRLPGVLSSGCELPESLQAPSREEAAKWSQVRKDLCSLKVSLQLRGEDGSVWNYKPPADSGGKEIFSLLPHMADMSTYMFKGIISFAKVISYFRDLPIEDQISLLKGAAFELCQLRFNTVFNAETGTWECGRLSYCLEDTAGGFQQLLLEPMLKFHYMLKKLQLHEEEYVLMQAISLFSPDRPGVLQHRVVDQLQEQFAITLKSYIECNRPQPAHRFLFLKIMAMLTELRSINAQHTQRLLRIQDIHPFATPLMQELFGITGS

Key:
mUCP1 promoter = test: NHR-promoter luciferase screen, mUCP1 promoter; assay type: cell-based, mouse; conditions: for Luc. act., normalized to lacZ / Normalized Luc. act., normalized to control: mUCP1 promoter reporter, co-transfected HR, with or without its ligand; for Normalized Luc. act., normalized to control: relative to control; for luciferase activity normalized to lacZ activity and to a control, mUCP!: mUCP! promoter-luciferase, CV-1 cells, NHR +/- ligand, control = 1.00
Method: (§1) The use, feasibility, and reproducibility of the functional NHR-promoter screen in a 48-well format have been tested validated. Briefly, there were co-expressed 50 ng of each NHR/NHR homodimer or NHR/RXR heterodimer with 100 ng promoter/luciferase construct and 50 ng of LacZ (as a control for transfection efficiency) in CV-1 cells using Fugene HD (Roche) as a transfection reagent (alternatively or additionally, a CMV-YFP construct can be used as a transfection control). Each of the nuclear hormone receptors that were used in these experiments was cloned into a pcDNA3.1 vector and comprised a C-terminally linked V5H6 tag. Twenty-four hours after transfection, appropriate ligands were added, where applicable, (see Table 5 for various ligands and concentrations and after 48 hrs, samples were assayed for luciferase and LacZ activity. To measure for luciferase activity 15 ul of sample was added to 30 ul of luciferase buffer (20 mM tricine, 1.07 mM MgCarbonate, 2.67 mM MgSulfate, 0.1 mM Naz-EDTA, 5 mM DTT, 5 mM ATP, 0.15 mg/ml CoA, 0.5 mM Luciferin), mixed briefly, and run in a Perkin Elmer Victor 5 luminometer. Thus, the functional NHR-promoter screen was used to observe the transcriptional activity of 29 promoters from various physiological pathways including inflammation, lipid and sugar metabolism, cholesterol transport, xenobiotic metabolism, and circadian rhythm.
(§2) The promoters that facilitate transcription of the indicated gene products that were tested using the protocols described herein are listed in the first row of the table. The nuclear hormone receptors and, where applicable, ligands that were assayed for their transcriptional effects on the promoters are listed in the first column of the table. The data represent the luciferase activity of each sample normalized to both the lacZ activity of that sample and to a control, e.g., no NHR or ligand, as customary in the art. As described previously, these normalizations allow the transcriptional activity of each reporter cell to be compared to other samples.
(§3) Tables 7-40 show the transcriptional effects of the hormone receptors, and, where applicable, ligands (orphan receptors are screened without ligand), on each individual promoter. […] The control data of each table are shown in their last rows.

hTNFa promoter = test: NHR-promoter luciferase screen, hTNFa promoter; assay type: cell-based, human; conditions: for Luc. act., normalized to lacZ / Normalized Luc. act., normalized to control: TNFa promoter, HR component without or with ligand; for hTNFa promoter reporter activity: transcription factor +/- ligand, control = 1.00
Method: as §1, §2, §3

Row | Molecule | Luc. act., normalized to lacZ (mUCP1 promoter) | Normalized Luc. act., normalized to control (mUCP1 promoter) | luciferase activity normalized to lacZ activity and to a control, mUCP! (mUCP1 promoter) | Luc. act., normalized to lacZ (hTNFa promoter) | Normalized Luc. act., normalized to control (hTNFa promoter) | hTNFa promoter reporter activity (hTNFa promoter)
1 | B1 | 0.9 | 0.2 | 0.21 | 1036.3 | 1.1 | 1.05
2 | B2 | 3.5 | 0.8 | 0.79 | 859.3 | 0.9 | 0.87
3 | B3 | 2.5 | 0.6 | 0.55 | 1025.0 | 1.0 | 1.04
4 | B4 | 3.8 | 0.9 | 0.86 | 1029.5 | 1.0 | 1.05
5 | B5 | 3.3 | 0.7 | 0.74 | 908.2 | 0.9 | 0.92
6 | B6 | 8.1 | 1.8 | 1.82 | 1038.2 | 1.1 | 1.06
7 | B7 | 2.1 | 0.5 | 0.47 | 1152.4 | 1.2 | 1.17
